Experimental data as given in EP4782465A1.

Biological target: Human insulin receptor subtype B (human), P06213
Assay: cell-based or functional assay

Human insulin receptor subtype B activity (EC50): 422 nM
B1: Fusion protein 1 (insulin analog 1 + L2 + IgG2 Fc1) (Fc fusion)
chain: FVNQHLCGEHLVEALYLVCGERGFHYGGGGGGSGGGGGIVEQCCESICSLEQLENYCGGGGGQGGGGQGGGGQGGGGGECPPCPAPPVAGPSVFLFPPKPKDTLMISRTPEVTCVVVDVSHEDPEVQFNWYVDGVEVHNAKTKPREEQFNSTFRVVSVLTVVHQDWLNGKEYKCKVSNKGLPAPIEKTISKTKGQPREPQVYTLPPSREEMTKNQVSLTCLVKGFYPSDIAVEWESNGQPENNYKTTPPMLDSDGSFFLYSKLTVDKSRWQQGNVFSCSVMHEALHNHYTQKSLSLSPG
